Laboratory results published in patent US20230272099A1 (Chugai, published 2023).
Positions count from the first letter of the chain named.

B1: dBBAT091-P253 (antibody, human IgG1, lambda, V domains shown)
VH: EVQLVESGGDLVKPGGGLRLSCAASGFTFSSYTMNWVRQAPGKGLEWVSSISSRSNYIDYADSVKGRFTISRDNAKNSLYLQMNSLRAEDTAVYYCARFGKKNDMNWVFDYWGQGTLVTVSS
VL: QSALTQPPSASGSPGQTVTISCTGTSTDVGFYNYVSWYQQHPGKAPKLMIYEGSKRPSGVPDRFSGSKSGNTASLTVSGLQAEDEADYFCSSYEYTESVLFGGGTKLTVLG
B2: dBBAT037-P253 (antibody, human IgG1, lambda, V domains shown)
VH: B1 VH with S31G, K101L, D104S, M105L
VL: B1 VL with G53T, E94S, Y95G, T96A, E97S, S98I, V99L
B3: dBBAT112-P253 (antibody, human IgG1, lambda, V domains shown)
VH: B1 VH with S31T, I58K, D59F, K101V, D104N
VL: B1 VL with T27S, G53V, T96I
B4: dBBAT122-P253 (antibody, human IgG1, lambda, V domains shown)
VH: B1 VH with S31T, I58K, D59F, K101G, D104N
VL: B1 VL with T27S, G53V, T96I
B5: dBBAT119-P253 (antibody, human IgG1, lambda, V domains shown)
VH: B1 VH with S31T, Y32F, I58K, D59S, F99Y, K101A, D104F
VL: B1 VL with E52Y, G53T, E94R, T96D, E97H, S98Q, L100S
notes: also called dBBAT119H-P253/dBBAT119L-LamLib
B6: dBBAT021-P253 (antibody, human IgG1, lambda, V domains shown)
VH: B1 VH with I58R, F99Y, K101G, D104I, M105L
VL: B1 VL with T27S, G53V, E94S, Y95S, T96D, E97T, S98H, L100G
B7: dBBAT042-P253 (antibody, human IgG1, lambda, V domains shown)
VH: B1 VH with Y32H, V48I, I58K, D59S, F99Y, K101H, D104M, M105H
VL: B1 VL with T27S, G53V, S92T, E94R, T96D, E97Q, S98N, L100A
B8: 20H4.9-MB110/20H4.9LC-mk0 (antibody, mouse IgG1, kappa)
heavy: QVQLQQWGAGLLKPSETLSLTCAVYGGSFSGYYWSWIRQSPEKGLEWIGEINHGGYVTYNPSLESRVTISVDTSKNQFSLKLSSVTAADTAVYYCARDYGPGNYDWYFDLWGRGTLVTVSSAKTTPPSVYPLAPGSAAQTNSMVTLGCLVKGYFPEPVTVTWNSGSLSSGVHTFPAVLQSDLYTLSSSVTVPSSTWPSETVTCNVAHPASSTKVDKKIVPRDCGCKPCICTVPEVSDVFIFPPKPKDVLTITLTPKVTCVVVDISKDDPEVQFSWFVDDVEVHTAQTQPREEQFNSTFRSVSELPIMHQDWLNGKEFKCRVNSAAFPAPIEKTISKTKGRPKAPQVYTIPPPKEQMAKDKVSLTCMITDFFPEDITVEWQWNGQPAENYKNTQPIMDTDGSYFVYSKLNVQKSNWEAGNTFTCSVLHEGLHNHHTEKSLSHSPGK
light: EIVLTQSPATLSLSPGERATLSCRASQSVSSYLAWYQQKPGQAPRLLIYDASNRATGIPARFSGSGSGTDFTLTISSLEPEDFAVYYCQQRSNWPPALTFGGGTKVEIKRADAAPTVSIFPPSSEQLTSGGASVVCFLNNFYPKDINVKWKIDGSERQNGVLNSWTDQDSKDSTYSMSSTLTLTKDEYERHNSYTCEATHKTSTSPIVKSFNRNEC
notes: also called NS1-MB110
B9: 20H4.9-MB492/20H4.9LC-mk0 (antibody, mouse IgG1, kappa)
heavy: B8 heavy with T231E, V232P, P233N, S236E, N322D
light: B8 light
notes: also called NS1-MB492

Biological target: T1, hCD137 (FXa digested) (human, UniProt Q07011 24-186)
T1 construct: Factor Xa digestion and Protein A removed the Fc; also called human CD137 extracellular domain
Assay: SPR, 100 uM ADP
Protocol: (§1) Biacore T200 (GE Healthcare) was used to analyze the interaction of antigen-antibody reaction between the anti-CD137 antibodies and hCD137 (FXa digest). […] For the running buffer, 20 mM ACES, 150 mM NaCl, 2 mM MgCl₂, 0.05% Tween20 (pH 7.4) was used, and 10 mM Glycine-HCl (pH 1.5) was used as the regeneration solution.
(§2) After capturing of the anti-CD137 antibodies suspended in TBS, 500 nM hCD137 (FXa digest) was injected into each flow cell at a flow rate of 10 μL/min for three minutes. This three-minute period served as the binding phase for hCD137 (FXa digest), and after the binding phase ended, the two-minute period of switching to the running buffer served as the dissociation phase for hCD137 (FXa digest). After completion of the dissociation phase, the regenerative solution was injected at a flow rate of 30 μl/min for 30 seconds. The above was the cycle for measuring the binding activity of anti-CD137 antibodies. The binding amount of hCD137 (FXa digest) that interacted with the anti-CD137 antibody in the binding phase was adjusted by the amount of antibody captured. Biacore T200 Evaluation Software Version 2.0 was used to display the binding amount (RU) per capture ligand 1 RU, and values of the antibody capture amount (amount of antibody captured) and antigen-binding amount were obtained. Since the binding amount of antigen reflects the binding activity, it can be said that dependence on a small molecule is recognized when the value in the presence of the small molecule (ATP, ADP or AMP) is higher than the value without the small molecule. In particular, the larger the difference is, the higher the dependence is on a small molecule.

T1 sequence (Q07011 other isoform, or with tags, fused parts or gaps limits assumed): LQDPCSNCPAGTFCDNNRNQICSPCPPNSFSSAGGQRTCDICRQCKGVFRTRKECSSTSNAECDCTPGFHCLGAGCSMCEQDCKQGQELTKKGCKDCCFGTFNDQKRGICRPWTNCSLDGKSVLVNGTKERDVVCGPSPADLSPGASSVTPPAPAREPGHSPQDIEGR

Binder | binding amount [RU]
B1 | 33
B2 | 72.1
B3 | 43
B4 | 55.5
B5 | 112
B6 | 56.6
B7 | 58.7

Biological target: T1, hCD137 (FXa digested)
Assay: SPR, 100 uM ATP
Protocol: as §1, §2

Binder | binding amount [RU]
B1 | 3
B2 | 15.9
B3 | 6.3
B4 | 4.7
B5 | 12.9
B6 | 2.4
B7 | 4.3

Biological target: T1, hCD137 (FXa digested)
Assay: SPR, 10 uM ADP
Protocol: as §1, §2

Binder | binding amount [RU]
B1 | 20
B2 | 62.9
B3 | 27.4
B4 | 19.2
B5 | 67.2
B6 | 19.6
B7 | 19.1

Biological target: T1, hCD137 (FXa digested)
Assay: SPR, 1 mM AMP
Protocol: as §1, §2

Binder | binding amount [RU]
B1 | 2.9
B2 | 21.7
B3 | 6.5
B4 | 5.7
B5 | 58.6
B6 | 5.7
B7 | 7.8

Biological target: T2, biotinylated Fc-fused monkey CD137 (monkey, biotin on the AviTag)
T2 construct: also called cyCD137-Fc-BAP
Assay: ELISA, 1 mM ADP, 2.5 ug/mL
Parameters: reference not given here
Protocol: (§3) The obtained antibodies were evaluated for binding to monkey CD137 by ELISA. The cyCD137-Fc-BAP prepared in Reference Example 1 was immobilized on Streptawell microtiter plates. After the unbound antigen was removed from the plates by washing each well of the plates with the wash buffer, the wells were blocked with 150 μL of a blocking buffer (TBS with 2% BSA) for 1 hour or more. The blocking buffer was removed from each well, and 100 μL of the purified antibodies diluted in TBS with a final concentration of 1 mM ADP, or TBS with a final concentration 1 mM ADP was added to each well. The plate to which the antibody was added was shaken at 600 rpm for 1 hour. The AP-conjugated anti-human lambda antibodies (BETHYL) diluted in TBS with a final concentration of 1 mM ADP were added to each well after washing with a wash buffer (TBS with 0.1% Tween20) containing a final concentration of 1 mM ADP. After incubation for one hour and washing with a wash buffer containing a final concentration of 1 mM […], BluePhos phosphate substrate (KPL) was added. Color development was measured by absorbance at 600 nm. Samples with a concentration-dependent increase in the absorbance ratio can be said to be bound to monkey CD137.

T2 sequence (chain, as listed by the source limits assumed): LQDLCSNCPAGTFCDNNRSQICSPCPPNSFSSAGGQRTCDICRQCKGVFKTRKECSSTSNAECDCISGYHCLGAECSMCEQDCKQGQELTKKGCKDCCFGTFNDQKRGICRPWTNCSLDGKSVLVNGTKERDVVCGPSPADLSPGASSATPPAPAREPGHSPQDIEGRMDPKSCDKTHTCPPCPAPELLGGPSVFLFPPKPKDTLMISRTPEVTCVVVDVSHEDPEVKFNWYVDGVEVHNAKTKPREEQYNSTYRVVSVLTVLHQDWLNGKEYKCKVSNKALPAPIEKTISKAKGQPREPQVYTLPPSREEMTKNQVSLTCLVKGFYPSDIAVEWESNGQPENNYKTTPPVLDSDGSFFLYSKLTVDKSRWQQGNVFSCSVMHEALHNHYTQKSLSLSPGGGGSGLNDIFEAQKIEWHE

Binder | absorbance ratio
B1 | 5.5
B2 | 12.7
B3 | 8.1
B4 | 16.7
B5 | 56.6
B6 | 14

Biological target: T1, hCD137 (FXa digested)
Assay: SPR, 100 uM AMP
Protocol: as §1, §2

Binder | binding amount [RU]
B1 | 3.3
B2 | 13.8
B3 | 4.8
B4 | 4.1
B5 | 26.9
B6 | 3
B7 | 4.7

Biological target: T2, biotinylated Fc-fused monkey CD137
Assay: ELISA, 1 mM ADP, 0.625 ug/mL
Parameters: reference not given here
Protocol: as §3

Binder | absorbance ratio
B1 | 1.7
B2 | 4.6
B3 | 2.8
B4 | 5.7
B5 | 57.2
B6 | 4.6

Biological target: T2, biotinylated Fc-fused monkey CD137
Assay: ELISA, 1 mM ADP, 10 ug/mL
Parameters: reference not given here
Protocol: as §3

Binder | absorbance ratio
B1 | 15.1
B2 | 32.5
B3 | 19.8
B4 | 31.9
B5 | 55.3
B6 | 40.5

Biological target: T2, biotinylated Fc-fused monkey CD137
Assay: ELISA, 1 mM ADP, 0.010 ug/mL
Parameters: reference not given here
Protocol: as §3

Binder | absorbance ratio
B1 | 0.6
B2 | 1.1
B3 | 0.6
B4 | 0.9
B5 | 10.2
B6 | 0.9

Biological target: T1, hCD137 (FXa digested)
Assay: SPR, no small molecule
Protocol: as §1, §2

Binder | binding amount [RU]
B1 | 1.5
B2 | 3.8
B3 | 3.7
B4 | 3.3
B5 | 3.3
B6 | 2.9
B7 | 2.9

Biological target: T2, biotinylated Fc-fused monkey CD137
Assay: ELISA, 1 mM ADP, 0.156 ug/mL
Parameters: reference not given here
Protocol: as §3

Binder | absorbance ratio
B1 | 0.7
B2 | 1.9
B3 | 1
B4 | 1.9
B5 | 47.7
B6 | 1.7

Biological target: T1, hCD137 (FXa digested)
Assay: SPR 37C, 1 uM ATP
Protocol: (§4) Measurements of human CD137 binding were taken at 37° C. using 20 mM ACES (pH 7.4), 150 mM NaCl, 2 mM MgCl₂, and 0.05% Tween20 as running buffer. At first, antibodies were captured by interacting antibody solutions prepared in running buffer with the rabbit anti-mouse IgG (Thermo Scientific)-immobilized Series S Sensor Chip CM5 (GE Healthcare). The human CD137-binding activity in the presence of ATP and in the absence of ATP was then assessed by interacting with a human CD137 solution prepared in running buffer supplemented with a desired concentration of ATP, or a human CD137 solution prepared in running buffer without ATP. […] The chip was regenerated using 25 mM NaOH and 10 mM Glycine-HCl (pH 1.5), and measurements were performed by repeatedly capturing antibodies. Dissociation constant (KD) of the respective antibodies for human CD137 was calculated using Biacore T200 Evaluation Software 2.0. Specifically, the association rate constant ka (L/mol/s) and the dissociation rate constant kd (1/s) were calculated by global fitting of the sensorgrams obtained by measurement with the 1:1 Langmuir binding model, and the dissociation constant KD (mol/L) was calculated from these values.

Binder | Kd [nM]
B8 | 56.5
B9 | 54.9

Biological target: T2, biotinylated Fc-fused monkey CD137
Assay: ELISA, 1 mM ADP, 0.039 ug/mL
Parameters: reference not given here
Protocol: as §3

Binder | absorbance ratio
B1 | 0.5
B2 | 1.3
B3 | 0.6
B4 | 1
B5 | 26.6
B6 | 1.2

Biological target: T1, hCD137 (FXa digested)
Assay: SPR 37C, 10 uM ATP
Protocol: as §4

Binder | Kd [nM]
B8 | 53.9
B9 | 53.5

Biological target: T1, hCD137 (FXa digested)
Assay: SPR, 1 mM ATP
Protocol: as §1, §2

Binder | binding amount [RU]
B1 | 6.2
B2 | 27.5
B3 | 12.6
B4 | 11.5
B5 | 45.7
B6 | 9.2
B7 | 11.7

Biological target: T1, hCD137 (FXa digested)
Assay: SPR 37C, no ATP
Protocol: as §4

Binder | Kd [nM]
B8 | 61
B9 | 61.6

Biological target: T1, hCD137 (FXa digested)
Assay: SPR 37C, 100 uM ATP
Protocol: as §4

Binder | Kd [nM]
B8 | 51.9
B9 | 50.4
